Results on two molecules are retold here after patent US20160031996A1 (CSL, published 2016).

Numbering of substitutions follows the chain as printed.

Assay [1] has as its target T1, human IL-3Rα E51Q/P88T double mutant, full length (human, UniProt P26951 19-378).
T1 chain: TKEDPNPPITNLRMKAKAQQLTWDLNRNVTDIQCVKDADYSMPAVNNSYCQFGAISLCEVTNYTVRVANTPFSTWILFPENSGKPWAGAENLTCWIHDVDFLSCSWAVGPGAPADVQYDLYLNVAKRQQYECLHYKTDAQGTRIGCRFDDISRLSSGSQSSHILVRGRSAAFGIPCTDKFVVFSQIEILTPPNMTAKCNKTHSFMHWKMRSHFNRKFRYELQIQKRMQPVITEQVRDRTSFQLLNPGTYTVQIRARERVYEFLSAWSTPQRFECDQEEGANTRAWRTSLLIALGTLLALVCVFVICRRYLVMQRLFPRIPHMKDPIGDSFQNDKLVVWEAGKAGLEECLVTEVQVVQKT
The experiment in a line: flow cytometry, MFI normalised to WT. As for the experimental part:
(§1) Median fluorescence intensity (MFI) of each antibody was determined for WT IL-3Rα and for each IL-3Rα mutant. The MFI of WT IL-3Rα staining for each antibody was set as 100% then the MFI of each mutant was normalized to a percent of WT staining.
On the technique in general: Flow cytometry measures light scatter and fluorescence of single cells or particles in a stream.

For assay [2], the target named is T2, human IL-3Rα E51Q/S59A/P88T triple mutant, full length (human, UniProt P26951 19-378).
T2 chain: T1 chain with S41A
As to the kind of experiment: flow cytometry, MFI normalised to WT. As to the method: as §1

Assay [3] has as its target T3, human IL-3Rα E51Q/S59A double mutant, full length (human, UniProt P26951 19-378).
T3 chain: T1 chain with S41A, T70P
The experiment in a line: flow cytometry, MFI normalised to WT. As for the experimental part:
as §1

In assay [4] the target is T4, human IL-3Rα S59A/P88T double mutant, full length (human, UniProt P26951 19-378).
T4 chain: T1 chain with Q33E, S41A
As to the kind of experiment: flow cytometry, MFI normalised to WT. As to the method:
as §1

Assay [5] addresses T5, human IL-3Rα W93A, full length (human, UniProt P26951 19-378).
T5 construct: expressed in 293F cells; Western blot of whole cell extracts; also called W93, cell surface alanine
T5 sequence: T1 chain with Q33E, T70P, W75A
As to the kind of experiment: Western blot, whole cell extracts of 293F cells. For orientation: Immunoblotting shows a protein as a band on a membrane.

In assay [6] the target is T6, human IL-3Rα E51A, full length (human, UniProt P26951 19-378).
T6 construct: expressed in 293F cells; Western blot of whole cell extracts; also called E51, cell surface alanine
T6 sequence: T1 chain with Q33A, T70P
As to the kind of experiment: Western blot, whole cell extracts of 293F cells.

B1: monoclonal antibody 7G3 (antibody, V domains shown)
VH: EVQLQQSGPELVKPGASVKMSCKASGYTFTDYYMKWVKQSHGKSLEWIGDIIPSNGATFYNQKFKGKATLTVDRSSSTAYMHLNSLTSEDSAVYYCTRSHLLRASWFAYWGQGTLVTVSA
VL: DFVMTQSPSSLTVTAGEKVTMSCKSSQSLLNSGNQKNYLTWYLQKPGQPPKLLIYWASTRESGVPDRFTGSGSGTDFTLTISSVQAEDLAVYYCQNDYSYPYTFGGGTKLEIKR
notes: mouse monoclonal antibody (hybridoma ATCC HB-12009)
In the case of B1, the “MFI as percent of WT staining” value in assay [1] is 1.4 % of WT MFI; in assay [2], 1 % of WT MFI; in assay [3], 1.4 % of WT MFI; in assay [4], 3 % of WT MFI. Besides, the binding result in assay [5] and in assay [6] was “no binding” in each case.

B2: antibody CSL362 (antibody, V domains shown)
VH: EVQLVQSGAEVKKPGESLKISCKGSGYSFTDYYMKWARQMPGKGLEWMGDIIPSNGATFYNQKFKGQVTISADKSISTTYLQWSSLKASDTAMYYCARSHLLRASWFAYWGQGTMVTVSS
VL: DIVMTQSPDSLAVSLGERATINCESSQSLLNSGNQKNYLTWYQQKPGQPPKPLIYWASTRESGVPDRFSGSGSGTDFTLTISSLQAEDVAVYYCQNDYSYPYTFGQGTKLEIKR
B2: the “MFI as percent of WT staining” value in assay [1] is 2.5 % of WT MFI; in assay [2], 2.9 % of WT MFI; in assay [3] it was 2.4 % of WT MFI; in assay [4] it was 5 % of WT MFI.
